Measured values as given in patent US20180244756A1 (US Dept. of Health and Human Services, published 2018).

T1: MERS-CoV S1 protein, England1 strain, soluble (MERS-CoV, England1 strain, UniProt K9N5Q8 19-752)
T1 sequence: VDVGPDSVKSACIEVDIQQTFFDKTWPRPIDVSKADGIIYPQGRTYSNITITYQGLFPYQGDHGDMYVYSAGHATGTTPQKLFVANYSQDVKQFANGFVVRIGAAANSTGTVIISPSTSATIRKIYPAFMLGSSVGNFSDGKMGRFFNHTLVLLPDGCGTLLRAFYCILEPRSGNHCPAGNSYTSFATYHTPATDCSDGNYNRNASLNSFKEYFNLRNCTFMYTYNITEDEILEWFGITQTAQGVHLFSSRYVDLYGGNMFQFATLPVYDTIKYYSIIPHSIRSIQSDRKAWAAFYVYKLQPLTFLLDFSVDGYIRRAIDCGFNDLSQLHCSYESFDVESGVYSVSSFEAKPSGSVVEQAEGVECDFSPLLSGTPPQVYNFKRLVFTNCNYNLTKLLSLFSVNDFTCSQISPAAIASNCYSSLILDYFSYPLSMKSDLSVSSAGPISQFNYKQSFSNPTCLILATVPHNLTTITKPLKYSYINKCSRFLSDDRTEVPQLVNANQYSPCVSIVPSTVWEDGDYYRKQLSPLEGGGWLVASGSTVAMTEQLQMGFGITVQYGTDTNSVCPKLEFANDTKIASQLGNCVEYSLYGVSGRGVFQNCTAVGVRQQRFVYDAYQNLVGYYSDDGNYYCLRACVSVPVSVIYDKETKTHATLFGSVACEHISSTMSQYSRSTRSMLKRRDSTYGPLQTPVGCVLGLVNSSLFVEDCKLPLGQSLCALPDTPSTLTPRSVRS

T2: MERS-CoV Spike (S) glycoprotein, England1 strain, full length (MERS-CoV, England1 strain, UniProt K9N5Q8 19-1353)
T2 sequence: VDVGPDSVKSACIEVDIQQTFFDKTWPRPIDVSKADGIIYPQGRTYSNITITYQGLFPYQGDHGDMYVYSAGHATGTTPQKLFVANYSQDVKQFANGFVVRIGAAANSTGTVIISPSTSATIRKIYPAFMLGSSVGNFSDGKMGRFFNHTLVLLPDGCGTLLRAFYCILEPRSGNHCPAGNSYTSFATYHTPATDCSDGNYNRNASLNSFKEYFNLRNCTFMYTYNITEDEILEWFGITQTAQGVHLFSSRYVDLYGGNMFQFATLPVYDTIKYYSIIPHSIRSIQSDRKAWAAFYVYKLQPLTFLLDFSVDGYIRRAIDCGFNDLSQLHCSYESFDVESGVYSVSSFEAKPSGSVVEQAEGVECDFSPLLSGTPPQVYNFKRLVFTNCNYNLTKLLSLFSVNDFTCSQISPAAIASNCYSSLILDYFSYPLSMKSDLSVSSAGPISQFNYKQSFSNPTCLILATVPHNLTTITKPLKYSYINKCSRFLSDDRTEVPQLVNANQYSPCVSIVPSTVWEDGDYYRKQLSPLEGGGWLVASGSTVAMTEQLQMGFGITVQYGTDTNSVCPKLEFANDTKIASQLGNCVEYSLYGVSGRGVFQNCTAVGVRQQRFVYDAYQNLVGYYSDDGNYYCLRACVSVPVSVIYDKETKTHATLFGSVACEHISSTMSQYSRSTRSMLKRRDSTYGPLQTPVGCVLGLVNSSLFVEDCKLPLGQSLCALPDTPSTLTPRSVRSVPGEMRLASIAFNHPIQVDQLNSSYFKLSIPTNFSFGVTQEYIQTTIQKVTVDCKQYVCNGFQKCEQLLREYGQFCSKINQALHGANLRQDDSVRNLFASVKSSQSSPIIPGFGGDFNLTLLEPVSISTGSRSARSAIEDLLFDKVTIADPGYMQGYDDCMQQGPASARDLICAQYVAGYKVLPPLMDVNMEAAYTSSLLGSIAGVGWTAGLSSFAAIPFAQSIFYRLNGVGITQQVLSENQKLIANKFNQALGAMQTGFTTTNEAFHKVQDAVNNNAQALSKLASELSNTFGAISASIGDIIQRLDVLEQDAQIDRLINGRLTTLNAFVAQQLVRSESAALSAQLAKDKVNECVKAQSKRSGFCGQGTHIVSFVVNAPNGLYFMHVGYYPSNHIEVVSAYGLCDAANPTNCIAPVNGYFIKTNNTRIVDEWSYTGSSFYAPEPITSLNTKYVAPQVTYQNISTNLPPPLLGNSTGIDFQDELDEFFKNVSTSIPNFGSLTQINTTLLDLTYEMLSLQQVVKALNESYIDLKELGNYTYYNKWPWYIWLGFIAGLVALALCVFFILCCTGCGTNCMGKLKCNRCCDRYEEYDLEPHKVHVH

B1: F11 antibody (antibody, V domains shown)
VH: EVKLEESGGGLVKPGGSLKLSCAASGFTFSRYAMSWVRQTPEKRLEWVATINNGGSYSYYPDSVKGRLTISRDNAKNTLYLQMSSLRSEDTALYYCARHYDYDGYYYTMDFWGQGTSVTVSS
VL: DVLMTQIPLSLPVSLGDQASISCRSSQSIVHSNGNTYLEWYLQKPGQSPKPLIYKVSNRISGVPDRFSGSGSGTDFTLKISRVEAEDLGVYYCFQGSHVPYTFGGGTNLEIKR
B2: G2 antibody (antibody, V domains shown)
VH: QVQLQQSGGELVKPGASVKLSCKTSGFTFSSSYISWLKQKPGQSLEWIAWIYAGTGGTEYNQKFTGKAQVTVDTSSSTAYMQFSSLTTEDSAIYYCARGGSSFAMDYWGQGTSVTVSS
VL: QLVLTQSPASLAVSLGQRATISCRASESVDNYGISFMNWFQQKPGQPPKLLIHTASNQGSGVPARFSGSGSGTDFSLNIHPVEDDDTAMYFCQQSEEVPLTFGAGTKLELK
B3: G4 antibody (antibody, V domains shown)
VH: QVQLQQSGPELVRPGVSVKISCKGSGYTFTDYAIHWVKQSHAKSLEWIGVFSTYYGNTNYNQKFKGRATMTVDKSSSTAYMELARLTSEDSAIYYCARKSYYVDYVDAMDYWGQGTSVTVSS
VL: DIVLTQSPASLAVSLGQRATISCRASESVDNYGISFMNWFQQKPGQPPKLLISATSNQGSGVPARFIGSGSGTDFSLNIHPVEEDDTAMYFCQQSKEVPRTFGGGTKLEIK
B4: A10 human antibody (antibody, V domains shown)
VH: QVQLVQSGAEVKKPGSSVKVSCKASGGTFSTYALSWVRQAPGQGLEWMGGIIPIFGTANYAQKFQGRVTITADESTSTAYMELNSLRSEDTAVYYCARGSRSSSSAEYFQHWGQGTLVTVSS
VL: QSALTQPRSVSGSPGQSVTISCTGTSSDVGGYNYVSWYQQHPGKAPKLMIYDVSKRPSGVPDRFSGSKSGNTASLTISGLQAEDEADYYCCSYAGSYTLEVVFGGGTKLTVL
B5: FIB_B2 NHP antibody (antibody, V domains shown)
VH: QVQLQESGPGLVKPSETLSLTCAVSGGSISSNYWYWIRQSPVKGLEWIGYIYGGSGGTEYNPSLKSRVTISTDTSKNQFFLKLSSVTAADTAVYYCARSFYSWNGESWGQGVVVTVSS
VL: DIQMSQTPSSLSASVGDRVTITCRASQGINDYLNWYQQKPGKAPKLLIYYGNSLASGVPSRFSGSGSGTDFSLTISSLQPEDFATYYCQQGDSFPLTFGGGTKVDIK
B6: MERS-CoV S protein receptor binding domain (RBD), England1 strain, soluble (other)
chain: EAKPSGSVVEQAEGVECDFSPLLSGTPPQVYNFKRLVFTNCNYNLTKLLSLFSVNDFTCSQISPAAIASNCYSSLILDYFSYPLSMKSDLSVSSAGPISQFNYKQSFSNPTCLILATVPHNLTTITKPLKYSYINKCSRFLSDDRTEVPQLVNANQYSPCVSIVPSTVWEDGDYYRKQLSPLEGGGWLVASGSTVAMTEQLQMGFGITVQYGTDTNSVCPKLEFANDTKIASQLGNCVEY
B7: FIB_H1 NHP antibody (antibody, V domains shown)
VH: EVQLVQSGAEVKKPGASVKVSCKASGHIFTSYVINWLQEAPGQGFEWMGGIHPGNGGRDYAQKFQGRVTITADMSTSTVYMELRSLRSEDMAVYYCAASSGSYGVSSLDVWGRGVLVTVSS
VL: QSALTQPPSLSASPGASARLPCTLSSDLSVGSKNMYWYQQKPGSAPRLFLYYYSDSDKQLGPGVPNRVSGSKETSSNTAFLLISGLQPEDEADYYCQVYDSSANWVFGGGTRLTVL
B8: A2 human antibody (antibody, V domains shown)
VH: QVQLVESGGGLVKPGGSLRLSCAASGFTFSDYYMSWIRQAPGKGLEWVSYISSSGSTIYYADSVKGRFTISRDNAKNSLYLQMNSLRAEDTAVYYCARVGLGSGWYDWFDPWGQGTLVTVSS
VL: QSALTQPPSVSGAPGQRVTISCTGSSSNIGASYDVHWYQHLPGTAPKLLIYGNTNRPSGVPDRFSGSKSGTSASLAITGLQAEDEADYYCQSYDSSLSGVVFSGGTKLTVL

How the values were obtained:
[1] = biological target: B6
[2] = biological target: T1, MERS-CoV S1 protein, England1 strain, …
[3] = biological target: T2, MERS-CoV Spike (S) glycoprotein, …; assay: cell-based or functional assay
[4] = biological target: T1, MERS-CoV S1 protein, England1 strain, …; assay: ELISA, hybridoma supernatant
[5] = biological target: B6; assay: ELISA on RBD, mAb titrated 0.0032-10 µg/ml
[6] = biological target: B6; assay: ELISA, hybridoma supernatant
[7] = biological target: T1, MERS-CoV S1 protein, England1 strain, …; assay: ELISA; x axis 'Protein concentration (µg/ml)'
[8] = biological target: T2, MERS-CoV Spike (S) glycoprotein, …; assay: cell-based or functional assay; remark: listed apart in the source
[9] = biological target: B6; assay: ELISA; x axis 'Protein concentration (µg/ml)'
[10] = biological target: B6; assay: ELISA specificity (FIG. 22), told only by this label
[11] = biological target: B6; assay: ELISA on RBD coated plates
[12] = biological target: T1, MERS-CoV S1 protein, England1 strain, …; assay: ELISA on RBD, S1 or S2 coated plates
[13] = biological target: D12 antibody; assay: cell-based or functional assay
Sequence of D12 antibody (VH, as listed by the source, chain 1 of 2): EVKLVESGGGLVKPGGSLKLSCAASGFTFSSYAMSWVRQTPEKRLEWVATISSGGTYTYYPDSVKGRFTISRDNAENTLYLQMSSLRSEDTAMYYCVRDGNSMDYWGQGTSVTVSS
Sequence of D12 antibody (VL, as listed by the source, chain 2 of 2): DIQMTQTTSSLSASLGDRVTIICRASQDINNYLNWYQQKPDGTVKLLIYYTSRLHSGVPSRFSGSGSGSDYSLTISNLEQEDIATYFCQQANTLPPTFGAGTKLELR

Binder: B1
- Kd [1]: 114 nM
- koff [1]: 0.0079 s⁻¹
- kon [1]: 69100 M⁻¹ s⁻¹
- Kd [2]: 3.49 nM
- koff [2]: 0.000391 s⁻¹
- kon [2]: 112000 M⁻¹ s⁻¹
- IC50 [3]: 0.008 µg/mL
- IC80 [3]: 0.052 µg/mL
- ELISA (unit not given) [4]: 2.67
- EC50 (read off the curve) [5]: ~0.05 µg/mL

Binder: B2
- Kd [2]: 1.69 nM
- koff [2]: 0.000188 s⁻¹
- kon [2]: 111000 M⁻¹ s⁻¹
- IC50 [3]: 0.013 µg/mL
- IC80 [3]: 0.35 µg/mL
- ELISA (unit not given) [6]: 0.04
- binding result [6]: no binding (tested: not given (supernatant))
- EC50 (read off the curve) [7]: ~0.09 µg/mL

Binder: B3
- pseudotyped MERS-CoV (England1) virus neutralization potency [8]: ~10 fold lower
- IC50 [3]: 0.133 µg/mL
- IC80 [3]: 0.806 µg/mL
- ELISA (unit not given) [6]: 0.05
- ELISA (unit not given) [4]: 0.06
- binding result [9]: no binding (tested: 10 µg/ml)
- binding result [7]: no binding (tested: 10 µg/ml)

Binder: B4
- binding result [10]: no binding

Binder: B5
- binding result [11]: no binding
- binding result [12]: binds

Binder: B6
- IC50 (read off the curve) [13]: ~2 µg/mL

Binder: B7
- binding result [11]: no binding

Binder: B8
- binding result [10]: no binding
